Assay results published in US20230220042A1 (SHANGHAI JIAO TONG UNIVERSITY SCHOOL OF MEDICINE, published 2023).

T1: Biotin-FcγRIIB (human, UniProt P31994 43-217, limits assumed, biotin-labelled)
T1 construct: Bought, biotin-labelled; used at 1 µg/ml for staining and sorting; also called human FcγRIIB; CD32b
T1 sequence (looked up): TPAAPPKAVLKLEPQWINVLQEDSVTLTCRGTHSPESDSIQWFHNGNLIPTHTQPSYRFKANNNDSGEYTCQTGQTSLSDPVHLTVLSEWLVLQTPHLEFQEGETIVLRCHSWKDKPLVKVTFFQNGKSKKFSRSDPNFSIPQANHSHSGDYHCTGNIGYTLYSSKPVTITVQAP


The binders below were run against T1, Biotin-FcγRIIB (assay: FACS sorting of displayed Fc library on biotin-FcγRIIB, NGS).

Increased factor b Site 1 (point mutation/wild-type) | Binder
0.1 | human IgG2 anti-mouse CD40 surface displayed antibody, Fc mutant P271A (antibody, name in EU numbering, as m1; positions are Eu numbers; copies: 2 + 2) light chain (with the P2A rest): DTVLTQSPALAVSPGERVTISCRASDSVSTLMHWYQQKPGQQPKLLIYLASHLESGVPARFSGSGSGTDFTLTIDPVEADDTATYYCQQSWNDPWTFGGGTKLELKRTVAAPSVFIFPPSDEQLKSGTASVVCLLNNFYPREAKVQWKVDNALQSGNSQESVTEQDSKDSTYSLSSTLTLSKADYEKHKVYACEVTHQGLSSPVTKSFNRGECGSGATNFSLLKQAGDVEENPG heavy chain: EVQLVESDGGLVQPGRSLKLPCAASGFTFSDYYMAWVRQAPTKGLEWVASISYDGSSTYYRDSVKGRFTISRDNAKSTLYLQMDSLRSEDTATYYCGRHSSYFDYWGQGVMVTVSSASTKGPSVFPLAPCSRSTSESTAALGCLVKDYFPEPVTVSWNSGALTSGVHTFPAVLQSSGLYSLSSVVTVPSSNFGTQTYTCNVDHKPSNTKVDKTVERKCCVECPPCPAPPVAGPSVFLFPPKPKDTLMISRTPEVTCVVVDVSHEDAEVQFNWYVDGVEVHNAKTKPREEQFNSTFRVVSVLTVVHQDWLNGKEYKCKVSNKGLPAPIEKTISKTKGQPREPQVYTLPPSREEMTKNQVSLTCLVKGFYPSDIAVEWESNGQPENNYKTTPPMLDSDGSFFLYSKLTVDKSRWQQGNVFSCSVMHEALHNHYTQKSLSLSPGKLEPPPSTVSNMATVAVLVVLGAAIVTGAVVAFVMKMRRRNTGGKGGDYALAPGSQTSDLSLPDCKVMVHDPHSLA

These binders were tested against T1, Biotin-FcγRIIB (assay: magnetic sorting on biotin-FcγRIIB with unlabelled activating FcγRs, NGS; Library2).
Description: 3T3 cells were collected by trypsin digestion, and a single cell suspension was prepared. […] The cells were incubated for 15 minutes on ice and then washed twice with MACS buffer and re-suspended in 100 μl MACS buffer. Twenty-five μl anti-Biotin magnetic beads were added, and the cells were incubated for 15 minutes on ice and then washed once with MACS buffer and re-suspended to 500 μl, and added to the LS column put in the magnetic field. The effluent was collected, washed with 3 mL of MACS buffer and collected; The LS column was then removed out of the magnetic field, and 5 mL of MACS buffer was used to rapidly elute the remaining cells from the sorting column to collect positive cells, which are the high I/A ratio cells.
The high-FcγRIIB-affinity cells obtained from the above flow cytometry sorting are further sorted by magnetic-activated sorting. The cells are incubated with the mixture of Biotin-labeled FcγRIIB and non-labeled activating FcγRs, and then the labeled cells are sorted by anti-Biotin magnetic beads. The enrichment ratios after sorting relative to before sorting are analyzed by NGS.

Enrichment factor (percentage after sorting/percentage before sorting) | Increased factor (mutation enrichment factor/wild-type enrichment factor) | Percentage after sorting/unbinding percentage | Percentage before sorting/unbinding percentage | Binder
2.77 | 3.33 | 71.2 | 25.7 | human IgG2 anti-mouse CD40 surface displayed antibody, Fc mutant P271A (antibody, name in EU numbering, as m1; positions are Eu numbers; copies: 2 + 2) light chain (with the P2A rest): DTVLTQSPALAVSPGERVTISCRASDSVSTLMHWYQQKPGQQPKLLIYLASHLESGVPARFSGSGSGTDFTLTIDPVEADDTATYYCQQSWNDPWTFGGGTKLELKRTVAAPSVFIFPPSDEQLKSGTASVVCLLNNFYPREAKVQWKVDNALQSGNSQESVTEQDSKDSTYSLSSTLTLSKADYEKHKVYACEVTHQGLSSPVTKSFNRGECGSGATNFSLLKQAGDVEENPG heavy chain: EVQLVESDGGLVQPGRSLKLPCAASGFTFSDYYMAWVRQAPTKGLEWVASISYDGSSTYYRDSVKGRFTISRDNAKSTLYLQMDSLRSEDTATYYCGRHSSYFDYWGQGVMVTVSSASTKGPSVFPLAPCSRSTSESTAALGCLVKDYFPEPVTVSWNSGALTSGVHTFPAVLQSSGLYSLSSVVTVPSSNFGTQTYTCNVDHKPSNTKVDKTVERKCCVECPPCPAPPVAGPSVFLFPPKPKDTLMISRTPEVTCVVVDVSHEDAEVQFNWYVDGVEVHNAKTKPREEQFNSTFRVVSVLTVVHQDWLNGKEYKCKVSNKGLPAPIEKTISKTKGQPREPQVYTLPPSREEMTKNQVSLTCLVKGFYPSDIAVEWESNGQPENNYKTTPPMLDSDGSFFLYSKLTVDKSRWQQGNVFSCSVMHEALHNHYTQKSLSLSPGKLEPPPSTVSNMATVAVLVVLGAAIVTGAVVAFVMKMRRRNTGGKGGDYALAPGSQTSDLSLPDCKVMVHDPHSLA
2.74 | 3.3 | 22.2 | 8.1 | human IgG2 anti-mouse CD40 surface displayed antibody, Fc mutant P271S (antibody, name in EU numbering, as m1; positions are Eu numbers; copies: 2 + 2) light chain (with the P2A rest): DTVLTQSPALAVSPGERVTISCRASDSVSTLMHWYQQKPGQQPKLLIYLASHLESGVPARFSGSGSGTDFTLTIDPVEADDTATYYCQQSWNDPWTFGGGTKLELKRTVAAPSVFIFPPSDEQLKSGTASVVCLLNNFYPREAKVQWKVDNALQSGNSQESVTEQDSKDSTYSLSSTLTLSKADYEKHKVYACEVTHQGLSSPVTKSFNRGECGSGATNFSLLKQAGDVEENPG heavy chain: EVQLVESDGGLVQPGRSLKLPCAASGFTFSDYYMAWVRQAPTKGLEWVASISYDGSSTYYRDSVKGRFTISRDNAKSTLYLQMDSLRSEDTATYYCGRHSSYFDYWGQGVMVTVSSASTKGPSVFPLAPCSRSTSESTAALGCLVKDYFPEPVTVSWNSGALTSGVHTFPAVLQSSGLYSLSSVVTVPSSNFGTQTYTCNVDHKPSNTKVDKTVERKCCVECPPCPAPPVAGPSVFLFPPKPKDTLMISRTPEVTCVVVDVSHEDSEVQFNWYVDGVEVHNAKTKPREEQFNSTFRVVSVLTVVHQDWLNGKEYKCKVSNKGLPAPIEKTISKTKGQPREPQVYTLPPSREEMTKNQVSLTCLVKGFYPSDIAVEWESNGQPENNYKTTPPMLDSDGSFFLYSKLTVDKSRWQQGNVFSCSVMHEALHNHYTQKSLSLSPGKLEPPPSTVSNMATVAVLVVLGAAIVTGAVVAFVMKMRRRNTGGKGGDYALAPGSQTSDLSLPDCKVMVHDPHSLA
4.43 | 5.34 | 143 | 32.3 | human IgG2 anti-mouse CD40 surface displayed antibody, Fc mutant P271L (antibody, name in EU numbering, as m1; positions are Eu numbers; copies: 2 + 2) light chain (with the P2A rest): DTVLTQSPALAVSPGERVTISCRASDSVSTLMHWYQQKPGQQPKLLIYLASHLESGVPARFSGSGSGTDFTLTIDPVEADDTATYYCQQSWNDPWTFGGGTKLELKRTVAAPSVFIFPPSDEQLKSGTASVVCLLNNFYPREAKVQWKVDNALQSGNSQESVTEQDSKDSTYSLSSTLTLSKADYEKHKVYACEVTHQGLSSPVTKSFNRGECGSGATNFSLLKQAGDVEENPG heavy chain: EVQLVESDGGLVQPGRSLKLPCAASGFTFSDYYMAWVRQAPTKGLEWVASISYDGSSTYYRDSVKGRFTISRDNAKSTLYLQMDSLRSEDTATYYCGRHSSYFDYWGQGVMVTVSSASTKGPSVFPLAPCSRSTSESTAALGCLVKDYFPEPVTVSWNSGALTSGVHTFPAVLQSSGLYSLSSVVTVPSSNFGTQTYTCNVDHKPSNTKVDKTVERKCCVECPPCPAPPVAGPSVFLFPPKPKDTLMISRTPEVTCVVVDVSHEDLEVQFNWYVDGVEVHNAKTKPREEQFNSTFRVVSVLTVVHQDWLNGKEYKCKVSNKGLPAPIEKTISKTKGQPREPQVYTLPPSREEMTKNQVSLTCLVKGFYPSDIAVEWESNGQPENNYKTTPPMLDSDGSFFLYSKLTVDKSRWQQGNVFSCSVMHEALHNHYTQKSLSLSPGKLEPPPSTVSNMATVAVLVVLGAAIVTGAVVAFVMKMRRRNTGGKGGDYALAPGSQTSDLSLPDCKVMVHDPHSLA
1.86 | 2.25 | 52.5 | 28.2 | human IgG2 anti-mouse CD40 surface displayed antibody, Fc mutant S267W (antibody, name in EU numbering, as m1; positions are Eu numbers; copies: 2 + 2) light chain (with the P2A rest): DTVLTQSPALAVSPGERVTISCRASDSVSTLMHWYQQKPGQQPKLLIYLASHLESGVPARFSGSGSGTDFTLTIDPVEADDTATYYCQQSWNDPWTFGGGTKLELKRTVAAPSVFIFPPSDEQLKSGTASVVCLLNNFYPREAKVQWKVDNALQSGNSQESVTEQDSKDSTYSLSSTLTLSKADYEKHKVYACEVTHQGLSSPVTKSFNRGECGSGATNFSLLKQAGDVEENPG heavy chain: EVQLVESDGGLVQPGRSLKLPCAASGFTFSDYYMAWVRQAPTKGLEWVASISYDGSSTYYRDSVKGRFTISRDNAKSTLYLQMDSLRSEDTATYYCGRHSSYFDYWGQGVMVTVSSASTKGPSVFPLAPCSRSTSESTAALGCLVKDYFPEPVTVSWNSGALTSGVHTFPAVLQSSGLYSLSSVVTVPSSNFGTQTYTCNVDHKPSNTKVDKTVERKCCVECPPCPAPPVAGPSVFLFPPKPKDTLMISRTPEVTCVVVDVWHEDPEVQFNWYVDGVEVHNAKTKPREEQFNSTFRVVSVLTVVHQDWLNGKEYKCKVSNKGLPAPIEKTISKTKGQPREPQVYTLPPSREEMTKNQVSLTCLVKGFYPSDIAVEWESNGQPENNYKTTPPMLDSDGSFFLYSKLTVDKSRWQQGNVFSCSVMHEALHNHYTQKSLSLSPGKLEPPPSTVSNMATVAVLVVLGAAIVTGAVVAFVMKMRRRNTGGKGGDYALAPGSQTSDLSLPDCKVMVHDPHSLA
2.63 | 3.17 |  |  | human IgG2 anti-mouse CD40 surface displayed antibody, Fc mutant P271I (antibody, name in EU numbering, as m1; positions are Eu numbers; copies: 2 + 2) light chain (with the P2A rest): DTVLTQSPALAVSPGERVTISCRASDSVSTLMHWYQQKPGQQPKLLIYLASHLESGVPARFSGSGSGTDFTLTIDPVEADDTATYYCQQSWNDPWTFGGGTKLELKRTVAAPSVFIFPPSDEQLKSGTASVVCLLNNFYPREAKVQWKVDNALQSGNSQESVTEQDSKDSTYSLSSTLTLSKADYEKHKVYACEVTHQGLSSPVTKSFNRGECGSGATNFSLLKQAGDVEENPG heavy chain: EVQLVESDGGLVQPGRSLKLPCAASGFTFSDYYMAWVRQAPTKGLEWVASISYDGSSTYYRDSVKGRFTISRDNAKSTLYLQMDSLRSEDTATYYCGRHSSYFDYWGQGVMVTVSSASTKGPSVFPLAPCSRSTSESTAALGCLVKDYFPEPVTVSWNSGALTSGVHTFPAVLQSSGLYSLSSVVTVPSSNFGTQTYTCNVDHKPSNTKVDKTVERKCCVECPPCPAPPVAGPSVFLFPPKPKDTLMISRTPEVTCVVVDVSHEDIEVQFNWYVDGVEVHNAKTKPREEQFNSTFRVVSVLTVVHQDWLNGKEYKCKVSNKGLPAPIEKTISKTKGQPREPQVYTLPPSREEMTKNQVSLTCLVKGFYPSDIAVEWESNGQPENNYKTTPPMLDSDGSFFLYSKLTVDKSRWQQGNVFSCSVMHEALHNHYTQKSLSLSPGKLEPPPSTVSNMATVAVLVVLGAAIVTGAVVAFVMKMRRRNTGGKGGDYALAPGSQTSDLSLPDCKVMVHDPHSLA
2.91 | 3.51 |  |  | human IgG2 anti-mouse CD40 surface displayed antibody, Fc mutant S267N (antibody, name in EU numbering, as m1; positions are Eu numbers; copies: 2 + 2) light chain (with the P2A rest): DTVLTQSPALAVSPGERVTISCRASDSVSTLMHWYQQKPGQQPKLLIYLASHLESGVPARFSGSGSGTDFTLTIDPVEADDTATYYCQQSWNDPWTFGGGTKLELKRTVAAPSVFIFPPSDEQLKSGTASVVCLLNNFYPREAKVQWKVDNALQSGNSQESVTEQDSKDSTYSLSSTLTLSKADYEKHKVYACEVTHQGLSSPVTKSFNRGECGSGATNFSLLKQAGDVEENPG heavy chain: EVQLVESDGGLVQPGRSLKLPCAASGFTFSDYYMAWVRQAPTKGLEWVASISYDGSSTYYRDSVKGRFTISRDNAKSTLYLQMDSLRSEDTATYYCGRHSSYFDYWGQGVMVTVSSASTKGPSVFPLAPCSRSTSESTAALGCLVKDYFPEPVTVSWNSGALTSGVHTFPAVLQSSGLYSLSSVVTVPSSNFGTQTYTCNVDHKPSNTKVDKTVERKCCVECPPCPAPPVAGPSVFLFPPKPKDTLMISRTPEVTCVVVDVNHEDPEVQFNWYVDGVEVHNAKTKPREEQFNSTFRVVSVLTVVHQDWLNGKEYKCKVSNKGLPAPIEKTISKTKGQPREPQVYTLPPSREEMTKNQVSLTCLVKGFYPSDIAVEWESNGQPENNYKTTPPMLDSDGSFFLYSKLTVDKSRWQQGNVFSCSVMHEALHNHYTQKSLSLSPGKLEPPPSTVSNMATVAVLVVLGAAIVTGAVVAFVMKMRRRNTGGKGGDYALAPGSQTSDLSLPDCKVMVHDPHSLA
